To fix the notation:
B1: 62BJN (Fab, V domains shown)
VH: EVQLVQSGAEVKKPGASVKVSCKASGYTFTSYDMHWVRQAPGQGLEWMGRIDPYGGGIKYAQKFQGRATLTVDTSTSTAYMELSRLRSDDTAVYYCARYDHGGYFDVWGQGTLVTVSS
VL: DIQMTQSPSSLSASVGDRVTITCRASQDIYNYLNWYQQKPGKAVKLLIYYTSRLHSGVPSRFSGSGSGTDYTLTISSLQPEDFATYFCQQGDTLPWTFGQGTKLEIKR
notes: also called VH W33D Q54Y S55G W99Y Y101H / VL T30Y (62BJN)
B2: 58BJN (Fab, V domains shown)
VH: B1 VH with Y54Q, G55S
VL: B1 VL
notes: also called VH W33D W99Y Y101H / VL T30Y (58BJN)
B3: 71BJN (Fab, V domains shown)
VH: B1 VH with Y54Q, G55T, G57D, Y99W, H101Y, Y104Q
VL: B1 VL with R53G
notes: also called VH W33D S55T G57D Y104Q / VL T30Y R53G (71BJN)
B4: 61BJN (Fab, V domains shown)
VH: B1 VH with S31D, Y54Q, G55S, G57D, I58H, K59D
VL: B1 VL
notes: also called VH S31D W33D G57D I58H K59D W99Y Y101H / VL T30Y (61BJN)
B5: 65BJN (Fab, V domains shown)
VH: B1 VH with M34L, Y54Q, G55S, H101Q
VL: B1 VL with N31Y
notes: also called VH W33D M34L W99Y Y101Q / VL T30Y N31Y (65BJN)
B6: 67BJN (Fab, V domains shown)
VH: B1 VH with Y54Q, G55S, Y99W, H101Y
VL: B1 VL with R53V
notes: also called VH W33D / VL T30Y R53V (67BJN)
B7: 55BJN (Fab, V domains shown)
VH: B1 VH with M34I, Y54Q, G55S, Y99W, H101Y
VL: B1 VL with Y30T
notes: also called VH W33D M34I / VL (55BJN)
B8: 72BJN (Fab, V domains shown)
VH: B1 VH with S31Q, Y54Q, G55S, H101Y
VL: B1 VL with R53I
notes: also called VH S31Q W33D W99Y / VL T30Y R53I (72BJN)
B9: 64BJN (Fab, V domains shown)
VH: B1 VH with S31T, D33W, Y54Q, G55S, I58S, Y99W, H101Y
VL: B1 VL with R53H
notes: also called VH S31T I58S / VL T30Y R53H (64BJN)
B10: 60BJN (Fab, V domains shown)
VH: B1 VH with Y54Q, G55S, I58E, H101Y
VL: B1 VL
notes: also called VH W33D I58E W99Y / VL T30Y (60BJN)
B11: 57BJN (Fab, V domains shown)
VH: B1 VH with Y54Q, G55S, Y99W, H101Y
VL: B1 VL with Y30T
notes: also called VH W33D / VL (57BJN)
B12: 66BJN (Fab, V domains shown)
VH: B1 VH with Y54Q, G55T, Y99W
VL: B1 VL with L94Q
notes: also called VH W33D S55T Y101H / VL T30Y L94Q (66BJN)
B13: 63BJN (Fab, V domains shown)
VH: B1 VH with S31F, M34I, Y54Q, G55S, Y99W, H101Y
VL: B1 VL
notes: also called VH S31F W33D M34I / VL T30Y (63BJN)
B14: 59BJN (Fab, V domains shown)
VH: B1 VH with D33Q, M34V, Y54Q, G55S, Y99W, H101Y
VL: B1 VL
notes: also called VH W33Q M34V / VL T30Y (59BJN)
B15: 56BJN (Fab, V domains shown)
VH: B1 VH with M34I, G55S, Y99W, H101Y
VL: B1 VL with Y30T
notes: also called VH W33D M34I Q54Y / VL (56BJN)
B16: 68BJN (Fab, V domains shown)
VH: B1 VH with D33W, H35Q, Y54Q, G55D, G57D, H101Y
VL: B1 VL with R53V
notes: also called VH H35Q S55D S57D W99Y / VL T30Y R53V (68BJN)
B17: 06BLM (antibody, human IgG1, L234A L235A, V domains shown)
VH: B1 VH with Y54Q, G55S, K59R, Y99W, H101Y, Y104Q
VL: DIQMTQSPSSLSASVGDRVTITCRASQDIYNYLNWYQQKPGKAVKLLIYYTSILETGVPSRFSGSGSGTDYTLTISSLQPEDFATYFCQQGDTLPWTFGQGTKLEIK
notes: IgG1 L234A L235A D265S/kappa; also called 69BLH; 42BMD

Positions count from the first letter of the chain named. In names and notes the source's numbering stands.

human LAP-TGFβ1 expressed on P3U1 cells, sequence (P01137 30-390): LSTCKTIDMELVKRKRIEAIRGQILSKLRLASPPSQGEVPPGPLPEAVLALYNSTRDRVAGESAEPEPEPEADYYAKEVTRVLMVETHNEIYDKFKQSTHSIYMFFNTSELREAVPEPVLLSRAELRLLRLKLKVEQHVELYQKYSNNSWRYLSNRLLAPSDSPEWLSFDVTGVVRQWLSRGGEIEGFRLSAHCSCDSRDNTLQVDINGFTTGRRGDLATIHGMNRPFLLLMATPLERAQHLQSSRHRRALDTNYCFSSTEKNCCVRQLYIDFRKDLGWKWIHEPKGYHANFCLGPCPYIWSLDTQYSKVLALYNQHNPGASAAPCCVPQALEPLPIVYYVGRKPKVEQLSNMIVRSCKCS

In the first assay the target is T1, human LAP-TGFB2 Fc fusion (human).
T1 construct: also called human LAP-TGFβ2; LAP-TGFβ isoform 2
T1 sequence (chain, as listed by the source limits assumed): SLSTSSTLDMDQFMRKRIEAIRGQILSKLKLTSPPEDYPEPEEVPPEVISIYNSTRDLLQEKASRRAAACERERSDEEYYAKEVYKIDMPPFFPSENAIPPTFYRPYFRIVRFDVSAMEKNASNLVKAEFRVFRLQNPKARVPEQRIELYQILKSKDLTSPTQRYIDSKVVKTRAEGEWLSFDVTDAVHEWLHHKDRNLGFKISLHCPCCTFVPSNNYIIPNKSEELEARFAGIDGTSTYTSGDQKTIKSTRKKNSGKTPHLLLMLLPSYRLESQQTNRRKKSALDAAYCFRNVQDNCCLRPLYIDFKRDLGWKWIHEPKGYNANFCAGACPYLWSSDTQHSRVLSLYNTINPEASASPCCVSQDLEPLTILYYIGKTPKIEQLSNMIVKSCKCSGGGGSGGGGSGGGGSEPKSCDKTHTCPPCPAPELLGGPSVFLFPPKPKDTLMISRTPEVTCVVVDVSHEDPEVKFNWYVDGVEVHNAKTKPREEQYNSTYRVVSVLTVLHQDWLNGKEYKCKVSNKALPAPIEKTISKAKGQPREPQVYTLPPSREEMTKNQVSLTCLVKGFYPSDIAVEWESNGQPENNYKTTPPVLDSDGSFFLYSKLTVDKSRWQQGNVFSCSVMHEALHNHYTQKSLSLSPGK
Kind of assay: SPR. The text has this: (§1) This Example describes the isoform specificity of the yeast display mutants to bind to human LAP-TGFβ isoforms 1, 2, and 3 using surface plasmon resonance. A Series S CM4 sensor chip (GE Healthcare, catalog BR100534) was immobilized with an anti-human Fc capture antibody following the kit protocol (GE Healthcare, catalog BR100839) on a Biacore T200 instrument with 1× HBS-EP+ (Teknova, catalog H8022). […] Binding specificity experiments between human LAP-TGFβ isoforms 2 and 3 and yeast display mutants were performed in 1× HBS-EP+ with 0.1 mg/mL BSA at 25° C. Approximately 20-40 RU amounts of human LAP-TGFβ2 and 3 were captured to the anti-human Fc surface followed by injection of 1000 nM Fab including a negative control 0 nM Fab. The binding data were double referenced by subtraction of signal from a reference (capture surface only) flow cell and the negative control 0 nM Fab injection. Binding rate constants were determined by fitting the data with a 1:1 binding model (GE Healthcare Biacore T200 Evaluation software 3.0).
Background: Surface plasmon resonance follows binding to a sensor surface in real time, without labels.
Take B1: the binding result was “no binding (tested: 1000 nM Fab)”.
Consider B2, for which the binding result was “no binding (tested: 1000 nM Fab)”.
Regarding B3, the binding result is listed as “no binding (tested: 1000 nM Fab)”.
For B4, the binding result is “no binding (tested: 1000 nM Fab)”.
The same measure, in the same setting: next, B5: “no binding (tested: 1000 nM Fab)”; B6: “no binding (tested: 1000 nM Fab)”; B7: “no binding (tested: 1000 nM Fab)”.
With B8, the binding result is recorded as “no binding (tested: 1000 nM Fab)”.
The same measure, in the same setting: for B9 the value was “no binding (tested: 1000 nM Fab)”.
Same read-out and setting: next, B10: “no binding (tested: 1000 nM Fab)”; B11: “no binding (tested: 1000 nM Fab)”.
Still for that read-out and setting: next, B12: “no binding (tested: 1000 nM Fab)”.
With B13, the binding result was “no binding (tested: 1000 nM Fab)”.
Same read-out and setting: next, B14: “no binding (tested: 1000 nM Fab)”.
Still for that read-out and setting: for B15 the value was “no binding (tested: 1000 nM Fab)”.
Still for that read-out and setting: for B16 the value was “no binding (tested: 1000 nM Fab)”.

The target in another assay is T2, human LAP-TGFB3 Fc fusion (human).
T2 construct: also called human LAP-TGFβ3; LAP-TGFβ isoform 3
T2 sequence (chain, as listed by the source limits assumed): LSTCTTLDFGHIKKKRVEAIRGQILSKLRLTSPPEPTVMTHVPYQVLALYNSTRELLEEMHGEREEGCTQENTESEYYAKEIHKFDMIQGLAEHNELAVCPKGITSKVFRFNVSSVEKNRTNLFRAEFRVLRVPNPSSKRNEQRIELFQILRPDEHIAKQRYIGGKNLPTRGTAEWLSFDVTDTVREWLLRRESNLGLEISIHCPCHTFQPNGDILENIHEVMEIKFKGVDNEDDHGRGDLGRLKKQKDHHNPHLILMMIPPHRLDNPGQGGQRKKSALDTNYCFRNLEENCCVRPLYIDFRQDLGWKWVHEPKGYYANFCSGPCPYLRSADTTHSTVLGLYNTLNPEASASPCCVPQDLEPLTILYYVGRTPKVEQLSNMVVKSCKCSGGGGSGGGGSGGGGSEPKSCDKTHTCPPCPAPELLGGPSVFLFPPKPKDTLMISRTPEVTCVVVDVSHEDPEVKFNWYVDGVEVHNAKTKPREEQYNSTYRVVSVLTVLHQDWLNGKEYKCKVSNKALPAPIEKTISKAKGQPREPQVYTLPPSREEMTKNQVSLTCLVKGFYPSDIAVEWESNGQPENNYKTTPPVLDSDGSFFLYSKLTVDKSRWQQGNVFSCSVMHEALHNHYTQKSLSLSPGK
Kind of assay: SPR.
Description: as §1
Consider B1, for which the binding result is given as “no binding (tested: 1000 nM Fab)”.
Still for that read-out and setting: next, B2: “no binding (tested: 1000 nM Fab)”; B3: “no binding (tested: 1000 nM Fab)”; B4: “no binding (tested: 1000 nM Fab)”.
As for B5, the binding result is “no binding (tested: 1000 nM Fab)”.
On the same count and under the same terms, next, B6: “no binding (tested: 1000 nM Fab)”; B7: “no binding (tested: 1000 nM Fab)”.
With B8, the binding result is “no binding (tested: 1000 nM Fab)”.
On the same count and under the same terms, for B9 the value was “no binding (tested: 1000 nM Fab)”.
Still for that read-out and setting: next, B10: “no binding (tested: 1000 nM Fab)”; B11: “no binding (tested: 1000 nM Fab)”; B12: “no binding (tested: 1000 nM Fab)”.
On the same count and under the same terms, for B13 the value was “no binding (tested: 1000 nM Fab)”.
Regarding B14, the binding result is listed as “no binding (tested: 1000 nM Fab)”.
Same read-out and setting: next, B15: “no binding (tested: 1000 nM Fab)”; B16: “no binding (tested: 1000 nM Fab)”.

The next assay concerns the target human LAP-TGFβ1 expressed on P3U1 cells (human, UniProt P01137 30-390). Kind of assay: cell-based or functional assay.
As to B17, the “Average EC50” value turned out to be 0.125 µg/mL, the “ELISA assay 2 EC50” value came out at 0.137 µg/mL and the “ELISA assay #1 EC50” value was 0.113 µg/mL.

The target in the next assay is T3, human LAP-TGFB1 Fc fusion (human).
T3 construct: also called human LAP-TGFβ1-Fc; human LAP-TGFβ-Fc isoform 1
T3 sequence (chain, as listed by the source limits assumed): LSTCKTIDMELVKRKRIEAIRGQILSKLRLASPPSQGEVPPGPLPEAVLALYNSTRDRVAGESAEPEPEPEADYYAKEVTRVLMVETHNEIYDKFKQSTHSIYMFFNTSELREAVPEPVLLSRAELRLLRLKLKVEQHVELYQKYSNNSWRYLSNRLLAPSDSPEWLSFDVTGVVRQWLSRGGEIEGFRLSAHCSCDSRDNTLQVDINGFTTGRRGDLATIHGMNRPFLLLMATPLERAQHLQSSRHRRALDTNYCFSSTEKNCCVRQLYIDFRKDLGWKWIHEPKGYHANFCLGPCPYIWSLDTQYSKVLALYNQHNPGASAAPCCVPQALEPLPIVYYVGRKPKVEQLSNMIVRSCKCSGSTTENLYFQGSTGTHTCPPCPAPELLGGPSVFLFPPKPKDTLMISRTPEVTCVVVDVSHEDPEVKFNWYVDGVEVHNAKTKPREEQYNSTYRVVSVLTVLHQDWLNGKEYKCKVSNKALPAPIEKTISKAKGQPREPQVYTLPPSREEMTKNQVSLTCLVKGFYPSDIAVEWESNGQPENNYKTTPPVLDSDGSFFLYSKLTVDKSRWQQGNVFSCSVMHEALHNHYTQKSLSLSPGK
Kind of assay: SPR, antigen-Fc captured, Fab analyte.
Description: as §1
Consider B1, for which the “Fold improvement in KD” value was 5 fold; the affinity, expressed as Kd, was 15.6 nM; the koff was found to be 0.032 s⁻¹; the kon came out at 2.05e+06 M⁻¹ s⁻¹.
For the molecule B2, the “Fold improvement in KD” value was determined as 13 fold, binding was put at a Kd of 6.42 nM, the koff turned out to be 0.0151 s⁻¹ and the kon amounted to 2.35e+06 M⁻¹ s⁻¹.
B3: the “Fold improvement in KD” value was found to be 3200 fold; the affinity, expressed as Kd, was 0.0251 nM; the koff is 6.8e-05 s⁻¹; the association rate constant (kon) was 2.71e+06 M⁻¹ s⁻¹.
Taken in the same sequence, the figures for B4 were 1 fold, 175 nM, 0.279 s⁻¹ and 1.59e+06 M⁻¹ s⁻¹.
In the case of B5, the “Fold improvement in KD” value amounted to 10 fold, the Kd amounted to 8.12 nM, the koff was found to be 0.0238 s⁻¹ and the kon stood at 2.94e+06 M⁻¹ s⁻¹.
As to B6, the “Fold improvement in KD” value turned out to be 512 fold, the Kd is 0.156 nM, the dissociation rate constant (koff) was determined as 0.000762 s⁻¹ and the kon was 4.87e+06 M⁻¹ s⁻¹.
Turning to B7, the “Fold improvement in KD” value came to 3 fold.
Regarding B8, the “Fold improvement in KD” value was determined as 130 fold, the Kd stood at 0.615 nM, the off-rate (koff) was found to be 0.00298 s⁻¹ and the kon is 4.85e+06 M⁻¹ s⁻¹.
Taken in the same sequence, the figures for B9 were 37 fold, 2.15 nM, 0.0077 s⁻¹ and 3.57e+06 M⁻¹ s⁻¹.
Take B10: the “Fold improvement in KD” value was 31 fold; the affinity, expressed as Kd, was 2.57 nM; the koff stood at 0.00653 s⁻¹; the kon is 2.54e+06 M⁻¹ s⁻¹.
The like results for B11 were, in that order, 6 fold, 13.4 nM, 0.0178 s⁻¹ and 1.33e+06 M⁻¹ s⁻¹.
As to B12, the “Fold improvement in KD” value amounted to 13 fold, the Kd is 6.21 nM, the koff is 0.0131 s⁻¹ and the kon came out at 2.11e+06 M⁻¹ s⁻¹.
The like results for B13 were, in that order, 25 fold, 3.23 nM, 0.0053 s⁻¹ and 1.64e+06 M⁻¹ s⁻¹.
The like results for B14 were, in that order, 7 fold, 11.7 nM, 0.0263 s⁻¹ and 2.24e+06 M⁻¹ s⁻¹.
Take B15: the “Fold improvement in KD” value amounted to 1 fold.
For the molecule B16, the “Fold improvement in KD” value came out at 4200 fold, binding was put at a Kd of 0.0191 nM, the koff turned out to be 8.34e-05 s⁻¹ and the kon worked out at 4.36e+06 M⁻¹ s⁻¹.

The next assay deals with T3, human LAP-TGFB1 Fc fusion. Kind of assay: SPR pH 6.0, antigen captured on Fab 54BLH. From the text:
A Series S C1 sensor chip (Cytiva, catalog BR100535) was immobilized with low densities of high affinity Fab 54BLH on a Biacore T200 instrument with 1×HBS-EP+(Teknova, catalog H8022). This surface served as a monovalent capture surface for a low-density layer of heterodimer human LAP-TGFβ1 complex leaving the second binding site exposed for monovalent kinetic binding analysis with both mAbs and Fabs. Immobilized flow cell 1 served as the reference and flow cells 2, 3 and 4 were used to evaluate the binding interaction between human LAP-TGFβ1 and yeast display mutant mAbs and Fabs.
Approximately 15-25 RU of human LAP-TGFβ1-Fc was captured to the Fab capture surface followed by injection of 1:3 serially diluted Fabs and mAbs from 6 nM to 0.07 nM (Fabs: 54BLH, 55BLH, 60BLH, 63BLH, 64BLH-mAbs: 69BLH, 70BLH) and 1:3 serially diluted Fab and mAbs from 60 nM to 0.74 nM (Fabs: 59BLH, 66BLH, 67BLH—mAbs: 74BLH, 75BLH, 78BLH, 79BLH, 81BLH, 82BLH) including 0 nM. The binding data was double referenced by subtraction of signal from a reference flow cell and the 0 nM injections for evaluation of Fabs and mAbs respectively. Binding rate constants were calculated/determined by fitting the data with a 1:1 binding model (Cytiva Biacore T200 Evaluation software 3.0).
B17: the “Fab/mAb KD Ratio” value is 1.9, the dissociation constant (Kd) was determined as 0.0114 nM, the koff was 6.18e-05 s⁻¹ and the kon stood at 5.43e+06 M⁻¹ s⁻¹.

In general, Kd refers to the free concentration of one partner at which half of the binding sites on the other are occupied at equilibrium, for simple one-to-one binding. One may read the koff as the first-order rate constant of dissociation. A higher koff goes with a short-lived complex. As a reminder, the kon is the second-order rate constant of association. A higher kon goes with faster complex formation.

The values above are taken from US20230272056A1 (Merck Sharp & Dohme, published 2023).
